Paper PMC2978286 (Journal of cardiovascular pharmacology, 2010)

Target: β2AR-YFP (UniProt P07550 1-413)
Test: FRET or BRET

B1: CXCR4-RLuc (receptor, UniProt P61073 1-352, looked up)
chain: MEGISIYTSDNYTEEMGSGDYDSMKEPCFREENANFNKIFLPTIYSIIFLTGIVGNGLVILVMGYQKKLRSMTDKYRLHLSVADLLFVITLPFWAVDAVANWYFGNFLCKAVHVIYTVNLYSSVLILAFISLDRYLAIVHATNSQRPRKLLAEKVVYVGVWIPALLLTIPDFIFANVSEADDRYICDRFYPNDLWVVVFQFQHIMVGLILPGIVILSCYCIIISKLSHSKGHQKRKALKTTVILILAFFACWLPYYIGISIDSFILLEIIKQGCEFENTVHKWISITEALAFFHCCLNPILYAFLGAKFKTSAQHALTSVSRGSSLKILSKGKRGGHSSVSTESESSSFHSS
BRET ratio (basal): 0.23
BRET ratio (with ISO and SDF-1): 0.42
